In publication PMC9130538, “Amino acids in transmembrane helix 1 confer major functional differences between human and mouse orthologs of the polyspecific membrane transporter OCT1” (The Journal of Biological Chemistry, 2022):

Experiments:
Test in all cases: cells, lysate or membranes
[1] = substrate: CC(C)(C)NCC(O)c1cc(O)cc(O)c1; conditions: other: HEK293 stably transfected, 2 min uptake, 37 °C, pH 7.4
[2] = substrate: CC(C)(C)NCC(O)c1ccc(O)c(CO)c1; conditions: other: HEK293 stably transfected, 2 min uptake, 37 °C, pH 7.4
[3] = substrate: CC(C)(C)NCC(O)c1ccc(O)c(CO)n1; conditions: other: HEK293 stably transfected, 2 min uptake, 37 °C, pH 7.4
[4] = substrate: CC(C)NCC(O)c1cc(O)cc(O)c1; conditions: other: HEK293 stably transfected, 2 min uptake, 37 °C, pH 7.4
[5] = substrate: CC(CCc1ccc(O)cc1)NCC(O)c1ccc(O)cc1; conditions: other: HEK293 stably transfected, 2 min uptake, 37 °C, pH 7.4
Method: (§1) Cells were cultured in Dulbecco’s Modified Eagle’s Medium supplemented with 10% fetal bovine serum, 100 U/ml penicillin, and 100 μg/ml streptomycin at 37 °C and 5% CO2 and were passaged twice a week.
(§2) At 48 h prior to the experiment, 6 × 10^5 cells were seeded per well in 12-well plates. When using transiently transfected cells, 5 × 10^5 T-REx-293 cells (Life Technologies) were seeded per well in 12-well plates 72 h prior to the experiment, and they were transfected 24 h later as described previously. Twelve-well plates were precoated with poly-D-lysine.
(§3) Cellular uptake experiments were performed at 37 °C and pH 7.4 using HBSS supplemented with 10 mM Hepes (in the following referred to as HBSS+). Cells were washed with 1 ml prewarmed (37 °C) HBSS+, and the uptake was initiated by adding 400 μl of prewarmed HBSS+ containing the substrate. Uptake was allowed for exactly 2 min and afterward stopped by adding 2 ml ice-cold HBSS+. Cells were washed twice with 2 ml ice-cold HBSS+ and lysed with 80% acetonitrile supplemented with internal standard, 0.1 N NaOH/0.1% SDS, or radioimmunoprecipitation buffer for LC–MS/MS, liquid scintillation counting, or fluorescence spectroscopy detection, respectively. Intracellular substrate concentrations were measured as described in the following and were then normalized to the amount of total protein in the samples as measured using the bicinchoninic acid assay ([51]).
(§4) For LC–MS/MS quantification of intracellular substrate concentrations, the cell lysate was centrifuged at 16,000g for 15 min, and 350 μl of supernatant was evaporated to dryness under nitrogen flow at 40 °C. The sample was reconstituted with 200 μl 0.1% formic acid, and between 2 and 30 μl were injected into the LC–MS/MS system (Table S1).
(§5) An API4000 QTRAP tandem mass spectrometer with ESI interface (AB SCIEX) was used, coupled to a Shimadzu Nexera X2 UHPLC system with LC 30AD pumps and SiL 30AC autosampler (Shimadzu).
(§6) Intracellular concentrations of radioactively labeled substrates MPP^+ and TEA^+ were quantified using liquid scintillation counting. To this end, 400 μl cell lysate was transferred into a 20 ml scintillation vial, 9 ml Aquasafe 500 Plus liquid scintillator (both Zinsser Analytics) was added, and the sample was measured in the Scintillation Counter LS6500 (Beckman Coulter).

[6] = substrate: CC(Cc1ccc(O)cc1)NCC(O)c1cc(O)cc(O)c1; conditions: other: HEK293 stably transfected, 2 min uptake, 37 °C, pH 7.4
[7] = substrate: CC(NCCc1ccc(O)cc1)C(O)c1ccc(O)cc1; conditions: other: HEK293 stably transfected, 2 min uptake, 37 °C, pH 7.4
[8] = substrate: CNC(=C[N+](=O)[O-])NCCSCc1ccc(CN(C)C)o1; conditions: other: HEK293 stably transfected, 2 min uptake, 37 °C, pH 7.4
[9] = substrate: CNC[C@H](O)c1ccc(O)c(O)c1; conditions: other: HEK293 stably transfected, 2 min uptake, 37 °C, pH 7.4
[10] = substrate: CNS(=O)(=O)Cc1ccc2[nH]cc(CCN(C)C)c2c1; conditions: other: HEK293 stably transfected, 2 min uptake, 37 °C, pH 7.4
[11] = substrate: COc1ccc(CC(C)NCC(O)c2ccc(O)c(NC=O)c2)cc1; conditions: other: HEK293 stably transfected, 2 min uptake, 37 °C, pH 7.4
[12] = substrate: C[N+](C)(C)CCO; conditions: other: HEK293 stably transfected, 2 min uptake, 37 °C, pH 7.4
[13] = substrate: C[N+]1(CC2CC2)CC[C@]23c4c5ccc(O)c4O[C@H]2C(=O)CC[C@@]3(O)[C@H]1C5; conditions: other: HEK293 stably transfected, 2 min uptake, 37 °C, pH 7.4
Method: as §1, §2, §3, §4, §5, §6

[14] = substrate: NCCc1c[nH]c2ccc(O)cc12; conditions: other: HEK293 stably transfected, 2 min uptake, 37 °C, pH 7.4
[15] = substrate: NCCc1c[nH]cn1; conditions: other: HEK293 stably transfected, 2 min uptake, 37 °C, pH 7.4
[16] = substrate: NCCc1ccc(O)c(O)c1; conditions: other: HEK293 stably transfected, 2 min uptake, 37 °C, pH 7.4
[17] = substrate: NC[C@H](O)c1ccc(O)c(O)c1; conditions: other: HEK293 stably transfected, 2 min uptake, 37 °C, pH 7.4
[18] = substrate: O=C(O[C@H]1C[C@H]2CC[C@@H](C1)[N+]21CCCC1)C(O)(c1ccccc1)c1ccccc1; conditions: pH 7.4; 37.0 °C
Method: as §1, §2, §3, §4, §5, §6

[19] = substrate: [H]/N=C(/N)N/C(=N/[H])NCCc1ccccc1; conditions: other: HEK293 stably transfected, 2 min uptake, 37 °C, pH 7.4
Method: as §1, §2, §3, §4, §5, §6

B1: mouse Oct1 (Mus musculus) (protein)
chain: MPTVDDVLEHVGEFGWFQKQAFLLLCLISASLAPIYVGIVFLGFTPDHHCRSPGVAELSQRCGWSPAEELNYTVPGLGSAGEASFLSQCMKYEVDWNQSTLDCVDPLSSLAANRSHLPLSPCEHGWVYDTPGSSIVTEFNLVCGDAWKVDLFQSCVNLGFFLGSLVVGYIADRFGRKLCLLVTTLVTSLSGVLTAVAPDYTSMLLFRLLQGMVSKGSWVSGYTLITEFVGSGYRRTTAILYQVAFTVGLVGLAGVAYAIPDWRWLQLAVSLPTFLFLLYYWFVPESPRWLLSQKRTTQAVRIMEQIAQKNRKVPPADLKMMCLEEDASERRSPSFADLFRTPSLRKHTLILMYLWFSCAVLYQGLIMHVGATGANLYLDFFYSSLVEFPAAFIILVTIDRIGRIYPIAASNLVAGAACLLMIFIPHELHWLNVTLACLGRMGATIVLQMVCLVNAELYPTFIRNLGMMVCSALCDLGGIFTPFMVFRLMEVWQALPLILFGVLGLSAGAVTLLLPETKGVALPETIEEAENLGRRKSKAKENTIYLQVQTGKSPHT
Km [1]: 60.4 ± 18.7 µM | Vmax [1]: 0.00295 µmol/min/mg | Vmax/Km [1]: 48.7 µL/min/mg | Km [2]: 52.2 ± 7.27 µM | Vmax [2]: 0.00197 µmol/min/mg | Vmax/Km [2]: 38.2 µL/min/mg | Km [3]: 26.5 ± 12.5 µM | Vmax [3]: 0.00185 µmol/min/mg | Vmax/Km [3]: 76.3 µL/min/mg | Km [4]: 89.8 ± 9.34 µM | Vmax [4]: 0.00424 µmol/min/mg | Vmax/Km [4]: 47.6 µL/min/mg | Km [5]: 2.54 ± 0.83 µM | Vmax [5]: 0.000481 µmol/min/mg | Vmax/Km [5]: 207 µL/min/mg | Km [6]: 6.90 ± 0.56 µM | Km [7]: 6.34 ± 0.89 µM | Vmax [7]: 0.000737 µmol/min/mg | Vmax/Km [7]: 116 µL/min/mg | Km [8]: 84.4 ± 27.0 µM | Vmax [8]: 0.0058 µmol/min/mg | Vmax/Km [8]: 74.1 µL/min/mg | Km [9]: 242 ± 38.6 µM | Vmax [9]: 0.00755 µmol/min/mg | Vmax/Km [9]: 31.2 µL/min/mg | Km [10]: 65.7 ± 17.0 µM | Vmax [10]: 0.00325 µmol/min/mg | Vmax/Km [10]: 50.5 µL/min/mg | Km [11]: 9.81 ± 2.26 µM | Km [12]: 1286 ± 308 µM | Vmax [12]: 0.0166 ± 0.0059 µmol/min/mg | Vmax/Km [12]: 13 µL/min/mg | Km [13]: 8.61 ± 3.12 µM | Km [14]: 257 ± 53.3 µM | Vmax [14]: 0.0162 ± 0.00276 µmol/min/mg | Vmax/Km [14]: 63.9 µL/min/mg | Km [15]: 497 ± 136 µM | Vmax [15]: 0.00596 µmol/min/mg | Vmax/Km [15]: 11.9 µL/min/mg | Km [16]: 285 ± 3.25 µM | Vmax [16]: 0.00171 µmol/min/mg | Vmax/Km [16]: 6 µL/min/mg | Km [17]: 409 ± 60.7 µM | Vmax [17]: 0.00607 µmol/min/mg | Vmax/Km [17]: 11.6 µL/min/mg | Km [18]: 1.81 ± 1.03 µM | Vmax [18]: 0.000163 µmol/min/mg | Vmax/Km [18]: 102 µL/min/mg | Km [19]: 7.53 ± 0.63 µM

B2: human OCT1 (Homo sapiens) (protein)
chain: MPTVDDILEQVGESGWFQKQAFLILCLLSAAFAPICVGIVFLGFTPDHHCQSPGVAELSQRCGWSPAEELNYTVPGLGPAGEAFLGQCRRYEVDWNQSALSCVDPLASLATNRSHLPLGPCQDGWVYDTPGSSIVTEFNLVCADSWKLDLFQSCLNAGFLFGSLGVGYFADRFGRKLCLLGTVLVNAVSGVLMAFSPNYMSMLLFRLLQGLVSKGNWMAGYTLITEFVGSGSRRTVAIMYQMAFTVGLVALTGLAYALPHWRWLQLAVSLPTFLFLLYYWCVPESPRWLLSQKRNTEAIKIMDHIAQKNGKLPPADLKMLSLEEDVTEKLSPSFADLFRTPRLRKRTFILMYLWFTDSVLYQGLILHMGATSGNLYLDFLYSALVEIPGAFIALITIDRVGRIYPMAMSNLLAGAACLVMIFISPDLHWLNIIIMCVGRMGITIAIQMICLVNAELYPTFVRNLGVMVCSSLCDIGGIITPFIVFRLREVWQALPLILFAVLGLLAAGVTLLLPETKGVALPETMKDAENLGRKAKPKENTIYLKVQTSEPSGT
Km [1]: 197 ± 54.1 µM | Vmax [1]: 0.0008 µmol/min/mg | Vmax/Km [1]: 3.81 µL/min/mg | Km [2]: 395 ± 56.8 µM | Vmax [2]: 0.00138 µmol/min/mg | Vmax/Km [2]: 3.55 µL/min/mg | Km [3]: 29.2 ± 12.2 µM | Vmax [3]: 0.00202 µmol/min/mg | Vmax/Km [3]: 73.5 µL/min/mg | Km [4]: 530 ± 44.9 µM | Vmax [4]: 0.0016 µmol/min/mg | Vmax/Km [4]: 3.03 µL/min/mg | Km [5]: 2.17 ± 0.59 µM | Vmax [5]: 0.000336 µmol/min/mg | Vmax/Km [5]: 162 µL/min/mg | Km [6]: 0.87 ± 0.19 µM | Km [7]: 0.68 ± 0.12 µM | Vmax [7]: 0.000153 µmol/min/mg | Vmax/Km [7]: 226 µL/min/mg | Km [8]: 55.7 ± 4.63 µM | Vmax [8]: 0.00409 µmol/min/mg | Vmax/Km [8]: 75 µL/min/mg | Km [9]: 558 ± 411 µM | Vmax [9]: 0.00112 µmol/min/mg | Vmax/Km [9]: 2.69 µL/min/mg | Km [10]: 65.9 ± 15.1 µM | Vmax [10]: 0.00418 µmol/min/mg | Vmax/Km [10]: 63.6 µL/min/mg | Km [11]: 13.2 ± 3.71 µM | Km [14]: 663 ± 334 µM | Vmax [14]: 0.00618 µmol/min/mg | Vmax/Km [14]: 10 µL/min/mg | Km [15]: 4675 ± 2319 µM | Vmax [15]: 0.00512 µmol/min/mg | Vmax/Km [15]: 1.27 µL/min/mg | Km [16]: 674 ± 194 µM | Vmax [16]: 0.000718 µmol/min/mg | Vmax/Km [16]: 1.04 µL/min/mg | Km [18]: 17.0 ± 5.46 µM | Vmax [18]: 0.00141 µmol/min/mg | Vmax/Km [18]: 86.7 µL/min/mg | Km [19]: 18.7 ± 2.64 µM
